This note sets out measurements from PMC10167121, “Completing the TRB family: newly characterized members show ancient evolutionary origins and distinct localization, yet similar interactions”.

The target of data set [1] is T1, TRB5 (Arabidopsis thaliana (Col-0), UniProt F4IEY4 1-287).
T1 sequence: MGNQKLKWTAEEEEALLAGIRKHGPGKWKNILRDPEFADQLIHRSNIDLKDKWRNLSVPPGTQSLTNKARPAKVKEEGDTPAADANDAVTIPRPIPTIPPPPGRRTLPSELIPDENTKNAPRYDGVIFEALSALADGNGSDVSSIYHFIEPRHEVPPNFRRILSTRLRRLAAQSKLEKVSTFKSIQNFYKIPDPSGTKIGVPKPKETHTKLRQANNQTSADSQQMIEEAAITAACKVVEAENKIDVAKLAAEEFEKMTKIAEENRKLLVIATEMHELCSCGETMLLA
As to the kind of experiment: EMSA; non-telomeric competitor 1-100x; 10 mM Tris-HCl pH 8.0, 1 mM EDTA, 1 mM DTT, 50 mM NaCl, 5% glycerol; 10 pmol protein, 1 pmol probe, on ice 20 min; 7.5% PAGE, 0.5x TBE, 15 C. As to conditions: protein: recombinant; tags: His-tag (pHGWA); chain copies: 2; label: 32P 5'-end; blunt. For orientation: A gel shift assay detects complexes by their altered migration in electrophoresis.

Data set [2] concerns the target T2, TRB4 (Arabidopsis thaliana, UniProt F4I7L1 1-296).
T2 sequence: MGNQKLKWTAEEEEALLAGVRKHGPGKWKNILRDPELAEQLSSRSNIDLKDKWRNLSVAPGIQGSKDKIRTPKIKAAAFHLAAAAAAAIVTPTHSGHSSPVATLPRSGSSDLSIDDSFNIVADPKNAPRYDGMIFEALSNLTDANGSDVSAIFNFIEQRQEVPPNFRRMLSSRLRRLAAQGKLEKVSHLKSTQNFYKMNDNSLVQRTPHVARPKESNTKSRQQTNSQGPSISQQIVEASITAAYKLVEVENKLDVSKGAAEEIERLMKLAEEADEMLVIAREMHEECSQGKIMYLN
Described as above. As to conditions: protein: recombinant; tags: His-tag (pHGWA); chain copies: 2; label: 32P 5'-end; blunt.

The target in data set [3] is T1, TRB5. As to the kind of experiment: EMSA; high-molecular-weight complex not entering the gel; resists 100x non-telomeric competitor; 10 mM Tris-HCl pH 8.0, 1 mM EDTA, 1 mM DTT, 50 mM NaCl, 5% glycerol; 10 pmol protein, 1 pmol probe, on ice 20 min; 7.5% PAGE, 0.5x TBE, 15 C. As to conditions: protein: recombinant; tags: His-tag (pHGWA); chain copies: 2; label: 32P 5'-end; blunt.

For data set [4], the target named is T2, TRB4. The data set is described as above. As to conditions: protein: recombinant; tags: His-tag (pHGWA); chain copies: 2; label: 32P 5'-end; blunt.
Another data set concerns the target T3, TRB1 (Arabidopsis thaliana, UniProt Q8VWK4 1-300).
T3 sequence: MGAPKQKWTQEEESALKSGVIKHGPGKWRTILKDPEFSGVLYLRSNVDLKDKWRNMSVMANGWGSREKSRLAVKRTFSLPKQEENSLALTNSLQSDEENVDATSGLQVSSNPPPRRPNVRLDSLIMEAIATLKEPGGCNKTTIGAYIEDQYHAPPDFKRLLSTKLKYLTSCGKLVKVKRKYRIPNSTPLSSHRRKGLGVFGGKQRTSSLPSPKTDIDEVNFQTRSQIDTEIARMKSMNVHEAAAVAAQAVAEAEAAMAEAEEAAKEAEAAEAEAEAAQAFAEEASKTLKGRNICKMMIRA
The data set is described as above. As to conditions: protein: recombinant; tags: His-tag (pHGWA); label: 32P 5'-end; blunt.

B1: telo-box (dsDNA)
DNA 1: TTTTTCACGAAAACCCTAATCGCAGTCG
DNA 2: CGACTGCGATTAGGGTTTTCGTGAAAAA
B1: the binding result in the data set with TRB5 [1] and in the data set with TRB4 [2] was “binds” throughout.

B2: telomeric (four plant telomeric repeats) (dsDNA)
DNA 1: AAACCCTAAACCCTAAACCCTAAACCCT
DNA 2: AGGGTTTAGGGTTTAGGGTTTAGGGTTT
Consider B2, for which the binding result in the data set with TRB5 [3], with TRB4 [4] and in the data set with TRB1 was “binds” each time.
